Legend:
[1] = target: T1, PTHR1 extracellular domain (ECD) (Homo sapiens); experiment: SPR; Nb_(PTHR1) and PTHR1 ECD; details in Supplementary Methods; conditions: both partners purified
T1 construct: extracellular domain of the type-1 parathyroid hormone receptor; also called PTHR1 ECD; PTHR1 (ECD)
T1 chain: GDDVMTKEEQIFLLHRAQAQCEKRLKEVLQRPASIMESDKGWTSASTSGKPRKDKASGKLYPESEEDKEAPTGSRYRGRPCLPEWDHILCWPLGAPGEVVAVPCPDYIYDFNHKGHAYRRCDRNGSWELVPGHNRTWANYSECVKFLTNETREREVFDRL

[2] = target: T2, PTHR1 extracellular domain (ECD); experiment: SPR; replicate 1; biotinylated Nb immobilized
T2 chain: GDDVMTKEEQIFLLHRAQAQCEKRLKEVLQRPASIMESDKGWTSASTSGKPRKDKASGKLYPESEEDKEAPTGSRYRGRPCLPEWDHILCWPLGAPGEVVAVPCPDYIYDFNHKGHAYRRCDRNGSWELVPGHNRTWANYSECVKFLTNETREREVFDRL

[3] = target: T2, PTHR1 extracellular domain (ECD); experiment: SPR; replicate 2; biotinylated Nb immobilized
[4] = target: T2, PTHR1 extracellular domain (ECD); experiment: SPR; replicate 1; biotinylated Nb immobilized
[5] = target: T2, PTHR1 extracellular domain (ECD); experiment: SPR; replicate 2; biotinylated Nb immobilized
[6] = target: T2, PTHR1 extracellular domain (ECD); experiment: SPR; mean of two experiments; biotinylated Nb immobilized
[7] = target: T3, native human type-1 parathyroid hormone receptor (hPTHR1) (Homo sapiens, UniProt Q03431); experiment: flow cytometry on cells; biotin-labeled Nbs or conjugates (500 nM in Fig. 4A, or varying concentrations) incubated 30 min on ice in PBS with 2% BSA with HEK293 cells stably expressing the receptor; detection with streptavidin-APC; conditions: one partner purified
T3 construct: type-1 parathyroid hormone receptor, human, unmodified receptor on the cell surface; also called WT PTHR1; WT-PTHR1; source: HEK293 (GS22) cells, stably expressing, on cells

[8] = target: T4, nanoluciferase-PTHR1 fusion (nLuc-PTHR1) (Homo sapiens, UniProt Q03431); experiment: FRET or BRET; competition on cells expressing nLuc-PTHR1: Nb_(PTHR1)-TMR (1 uM) followed by unlabeled ligand (2 uM), or varying unlabeled ligand added together with Nb_(PTHR1)-TMR (300 nM); conditions: one partner purified
T4 construct: type-1 parathyroid hormone receptor with nanoluciferase fused to the receptor N-terminus; source: cell line stably expressing the construct, on cells; not shown: nanoluciferase, N-terminal, kept

[9] = target: T5, glucagon-like peptide-1 receptor (GLP1R) (UniProt P43220 24-463); experiment: SPR; GLP1R-ECD; replicate 1
T5 chain: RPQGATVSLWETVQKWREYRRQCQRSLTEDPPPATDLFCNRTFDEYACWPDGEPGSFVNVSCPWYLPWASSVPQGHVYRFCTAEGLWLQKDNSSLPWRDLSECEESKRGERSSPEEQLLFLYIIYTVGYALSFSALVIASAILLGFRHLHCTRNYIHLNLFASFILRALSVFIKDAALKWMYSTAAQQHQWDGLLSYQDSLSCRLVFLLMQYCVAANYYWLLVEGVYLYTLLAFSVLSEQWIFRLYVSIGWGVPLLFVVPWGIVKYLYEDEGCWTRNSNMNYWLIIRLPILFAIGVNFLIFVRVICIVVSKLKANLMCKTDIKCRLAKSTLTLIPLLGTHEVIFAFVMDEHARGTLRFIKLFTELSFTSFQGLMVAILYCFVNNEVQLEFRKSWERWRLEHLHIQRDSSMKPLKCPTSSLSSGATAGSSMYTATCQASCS

[10] = target: T5, glucagon-like peptide-1 receptor (GLP1R); experiment: SPR; GLP1R-ECD; replicate 2
[11] = target: T5, glucagon-like peptide-1 receptor (GLP1R); experiment: SPR; GLP1R-ECD; replicate 1
[12] = target: T5, glucagon-like peptide-1 receptor (GLP1R); experiment: SPR; GLP1R-ECD; replicate 2

T3 sequence (Q03431 27-593): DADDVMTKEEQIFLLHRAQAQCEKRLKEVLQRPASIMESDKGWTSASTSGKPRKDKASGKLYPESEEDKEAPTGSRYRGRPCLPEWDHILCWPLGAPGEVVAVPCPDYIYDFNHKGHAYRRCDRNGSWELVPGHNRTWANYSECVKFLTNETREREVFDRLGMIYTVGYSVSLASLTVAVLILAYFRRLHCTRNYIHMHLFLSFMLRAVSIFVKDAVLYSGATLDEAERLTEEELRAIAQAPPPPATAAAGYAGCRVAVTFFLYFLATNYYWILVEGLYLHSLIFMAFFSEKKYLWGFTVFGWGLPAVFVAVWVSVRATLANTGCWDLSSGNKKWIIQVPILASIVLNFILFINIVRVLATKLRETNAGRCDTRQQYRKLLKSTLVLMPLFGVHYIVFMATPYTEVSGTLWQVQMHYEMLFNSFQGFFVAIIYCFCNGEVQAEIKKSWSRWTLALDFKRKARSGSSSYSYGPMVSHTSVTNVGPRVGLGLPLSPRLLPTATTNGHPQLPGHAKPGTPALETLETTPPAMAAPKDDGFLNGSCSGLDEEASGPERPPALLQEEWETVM
T4 sequence (Q03431 27-593): as above

B1: Nb_(PTHR1), unlabeled (VHH)
VHH: EVQLVESGGGLVQAGGSLRLSCAASGNIFANNIMGWYRQPPGKEREFVAHVSHDGDSMYAVSVKGRFAISRKDATNLYLQMNSLKPEDTAIYFCRLLNIPTQGRMEGFWGQGTQVTVSS
notes: Expressed from pET26b in frame with pelB and His6; the Nbs for sortagging bear LPETGG followed by His6 at the C-terminus; also called VHH_(PTHR); source: E. coli BL21(DE3), purified (Ni-NTA, SEC)
Work on B1 yielded a Kd [1] of about 1 nM, a Kd [2] of 0.5 nM and a Kd [3] of 0.9 nM. The koff [4] was 0.0065 s⁻¹, the koff [5] was 0.0015 s⁻¹ and the Kd [6] was 0.7 nM.

B2: Nb_(PTHR1) labeled with biotin (VHH)
VHH: EVQLVESGGGLVQAGGSLRLSCAASGNIFANNIMGWYRQPPGKEREFVAHVSHDGDSMYAVSVKGRFAISRKDATNLYLQMNSLKPEDTAIYFCRLLNIPTQGRMEGFWGQGTQVTVSS
notes: as the chain of m5; His6 is lost in the sortase reaction (unreacted protein is captured on nickel NTA beads); also called biotin-labeled Nb_(PTHR1); source: E. coli BL21(DE3), purified (Ni-NTA, SEC), labeled by sortagging; not shown: His6, C-terminal, cleaved
B2: binds [7].

B3: Nb_(PTHR1)-TMR (tetramethylrhodamine-labeled Nb_(PTHR1)) (VHH)
VHH: EVQLVESGGGLVQAGGSLRLSCAASGNIFANNIMGWYRQPPGKEREFVAHVSHDGDSMYAVSVKGRFAISRKDATNLYLQMNSLKPEDTAIYFCRLLNIPTQGRMEGFWGQGTQVTVSS
notes: as the chain of m5; His6 is lost in the sortase reaction; also called TMR-Nb_(PTHR1); source: E. coli BL21(DE3), purified (Ni-NTA, SEC), labeled by sortagging; not shown: His6, C-terminal, cleaved
B3: binds [8].

B4: Nb_(GLP1R) (VHH)
VHH: EVQLVESGGGLVQAGGSLRLSCAASGNTYSYKVMGWFRQAPGKEREFVGIIIRNGDTTYYADSVKGRFTISADNAKNTVYLQMNSLKPEDTAVYYCAASPKYMTAYERSYDWGQGTQVTVSS
For B4, the koff [9] was 0.0041 s⁻¹, the koff [10] was 0.0013 s⁻¹ and the Kd [11] was 24 nM. The Kd [12] was 32 nM.

B5: Nb_(PTHR1-X2) labeled with biotin (VHH)
VHH: EVQLVESGGGLVQAGGSLRLSCAASGLTFSNYAMGWFRQAPGKEREWVASINWSGGSTYYEDSVEGRFTISRDNAKNTVNLQMNSLKPEDTAVYYCAAKRGHYSREYDYWGQGTQVTVSS
notes: as the chain of m8; His6 is lost in the sortase reaction; also called Nb_(PTHR-X2); source: E. coli BL21(DE3), purified (Ni-NTA, SEC), labeled by sortagging; not shown: His6, C-terminal, cleaved
B5: binds [7].

Reference: paper PMC11144202, “Highly biased agonism for GPCR ligands via nanobody tethering” (Nature Communications, 2024)
